Reference: paper PMC8943062

Assays:
[1] = molecular target: closed-gate E71V KcsA channel (chymotrypsin-truncated) (UniProt P0A334); test: crystal structure; KcsA-Fab complex (formed from purified channel in DM and Fab, excess Fab removed by SEC) concentrated to 15 mg/ml, crystallised in 50 mM magnesium acetate, 50 mM sodium acetate pH 5.5, 25% PEG 400 at 20 °C; one monomer in the asymmetric unit
[2] = molecular target: open-gate E71V KcsA channel (chymotrypsin-truncated, TM1 and TM2 cross-linked by C28-C118 disulfides) (UniProt P0A334); test: as above

| Substance | stoichiometry N [1] | stoichiometry N [2] |
| --- | --- | --- |
| closed-gate E71V KcsA channel (chymotrypsin-truncated) (from UniProt P0A334 1-160) (natural protein) | 4 |  |
| open-gate E71V KcsA channel (chymotrypsin-truncated, TM1 and TM2 cross-linked by C28-C118 disulfides) (from UniProt P0A334 1-160) (natural protein) |  | 4 |
